The values below come from the RNAGym collection of RNA variant scans (doi:10.7554/elife.80360).

Sequences and labels used below:
B1: CPEB3 Ribozyme (parent)
chain: GGGGGCCACAGCAGAAGCGUUCACGUCGCGGCCCCUGUCAGAUUCUGGUGAAUCUGCGAAUUCUGCUGU

This series covers variants of B1. As to the kind of experiment: self-cleavage, relative activity (ratio to wild type); higher = more cleavage; co-transcriptional.
On to GGGGGCCACAGCAGAAGCGUUCACGUCACGGCCCCUGUCAGAUUCUGGUGAAUCUGCGAAUUCUUCUGU, for which the self-cleavage stood at 0.172.
As for GGGGGCCACAGCAGAAGCGUUCACGUCACGGCCCCUGUCAGAUUCUGGUGAAUCUGCGAAUUCUACUGU, the self-cleavage is 0.152.
On to GGGGGCCACAGCAGAAGCGUUCACGUCACGGCCCCUGUCAGAUUCUGGUGAUUCUGCGAAUUCUGCUGU, for which the self-cleavage was found to be 0.276.
Consider GGGGGCCACAGCAGAAGCGUUCACGUCACGGCCCCUGUCAGAUUCUGGUGACUCUGCGAAUUCUGCUGU, for which the self-cleavage stood at 0.182.
Regarding GGGGGCCACAGCAGAAGCGUUCACGUCACGGCCCCUGUCAGAUUCUGGUGAAUCUGCGAAUUUUGCUGU, the self-cleavage came out at 0.195.
With GGGGGCCACAGCAGAAGCGUUCACGUCACGGCCCCUGUCAGAUUCUGGUGAAUCUGCGAAUUCCGCUGU, the self-cleavage worked out at 0.151.
GGGGGCCACAGCAGAAGCGUUCACGUCACGGCCCCUGUCAGAUUCUGGUGAAUCUGCGAAUUCGGCUGU: the self-cleavage came to 0.205.
With GGGGGCCACAGCAGAAGCGUUCACGUUGCGGCCCCUAUCAGAUUCUGGUGAAUCUGCGAAUUCUGCUGU, the self-cleavage worked out at 0.187.
The value for GGGGGCCACAGCAGAAGCGUUCACGUUGCGGCCCCUGUCAGAUUCUGGUGAAUCUGCGAAUUGUGCUGU was 0.263.
GGGGGCCACAGCAGAAGCGUUCACGUUGCGGCCCCUGUCAGAUUCUGGUGAAUCUGCGAAUUAUGCUGU: the self-cleavage worked out at 0.165.
With GGGGGCCACAGCAGAAGCGUUCACGUCACGGCCCCUGUCAGAUUCUGGUGGAUCUGCGAAUUCUGCUGU, the self-cleavage is 0.229.
As to GGGGGCCACAGCAGAAGCGUUCACGUCACGGCCCCUGUCAUAUUCUGGUGAAUCUGCGAAUUCUGCUGU, the self-cleavage is 0.148.
Regarding GGGGGCCACAGCAGAAGCGUUCACGUCACGGCCCCUGUCAAAUUCUGGUGAAUCUGCGAAUUCUGCUGU, the self-cleavage is 0.178.
GGGGGCCACAGCAGAAGCGUUCACGUCACGGCCCCUGUCAGAUUCUGGAGAAUCUGCGAAUUCUGCUGU: the self-cleavage amounted to 0.181.
Consider GGGGGCCACAGCAGAAGCGUUCACGUUGCGGCCCCUGUCAGAUUCUGGUGAAUCUGCGAAUGCUGCUGU, for which the self-cleavage was 0.276.
Then GGGGGCCACAGCAGAAGCGUUCACGUUGCGGCCCCUGUCAGAUUCUGGUGAAUCUGCGAAUCCUGCUGU, with 0.189; and GGGGGCCACAGCAGAAGCGUUCACGUUGCGGCCCCUGUUAGAUUCUGGUGAAUCUGCGAAUUCUGCUGU, with 0.254; and GGGGGCCACAGCAGAAGCGUUCACGUUGCGGCCCCUGUCAAAUUCUGGUGAAUCUGCGAAUUCUGCUGU, with 0.147.
Consider GGGGGCCACAGCAGAAGCGUUCACGUUGCGGCCCCUGUCAGAUUCUGGUGAAUCUGCGAAUUCUGCUCU, for which the self-cleavage is 0.385.
GGGGGCCACAGCAGAAGCGUUCACGUUGCGGCCCCUGUCAGAUUCUGGUGAAUCUGCGAAUUCUGCGGU: the self-cleavage is 0.4.
With GGGGGCCACAGCAGAAGCGUUCACGUUGCGGCCGCUGUCAGAUUCUGGUGAAUCUGCGAAUUCUGCUGU, the self-cleavage is 0.24.
In the case of GGGGGCCACAGCAGAAGCGUUCACGUCACGGCCCCUGUCAGAUUCUGGUGAAUCUGCGAAUUCUGCUAU, the self-cleavage is 0.294.
The value for GGGGGCCACAGCAGAAGCGUUCACGUUGCGGCCCCUGUCAGAUUCUGGUGAAUCGGCGAAUUCUGCUGU was 0.188.
Consider GGGGGCCACAGCAGAAGCGUUCACGUCACGGCCCCUGUCAGAUUCUGGUGAAUAUGCGAAUUCUGCUGU, for which the self-cleavage came to 0.175.
In the case of GGGGGCCACAGCAGAAGCGUUCACGUCACGACCCCUGUCAGAUUCUGGUGAAUCUGCGAAUUCUGCUGU, the self-cleavage was found to be 0.153.
For GGGGGCCACAGCAGAAGCGUUCACGUCACGUCCCCUGUCAGAUUCUGGUGAAUCUGCGAAUUCUGCUGU, the self-cleavage is 0.197.
Then GGGGGCCACAGCAGAAGCGUUCACGUCACGGCCCCUGACAGAUUCUGGUGAAUCUGCGAAUUCUGCUGU, with 0.176; and GGGGGCCACAGCAGAAGCGUUCACGUCACGGCCCCUGUCAGAUUCUGGUGAAUCUGCGCAUUCUGCUGU, with 0.185.
GGGGGCCACAGCAGAAGCGUUCACGUCACGGCCCCUGUCAGAUUCUGGUGAAUCUGCGGAUUCUGCUGU: the self-cleavage is 0.17.
Regarding GGGGGCCACAGCAGAAGCGUUCACGUUGCGGCCCGUGUCAGAUUCUGGUGAAUCUGCGAAUUCUGCUGU, the self-cleavage was 0.14.
In the case of GGGGGCCACAGCAGAAGCGUUCACGUCACGGCCCCUGUCAGAUUCUGGUGAAUCGGCGAAUUCUGCUGU, the self-cleavage is 0.167.
On to GGGGGCCACAGCAGAAGCGUUCACGUCACGGCCCCUGUCAGAUUCUGGUGAAUCAGCGAAUUCUGCUGU, for which the self-cleavage is 0.169.
The value for GGGGGCCACAGCAGAAGCGUUCACGUUGCGGCCCCUGUCAGAUUAUGGUGAAUCUGCGAAUUCUGCUGU was 0.216.
In the case of GGGGGCCACAGCAGAAGCGUUCACGUUGCGGCCCCUGUCAGAUUUUGGUGAAUCUGCGAAUUCUGCUGU, the self-cleavage was 0.35.
With GGGGGCCACAGCAGAAGCGUUCACGUCACGGCCCCUGUCAGAUUCUGGUGAAACUGCGAAUUCUGCUGU, the self-cleavage came to 0.198.
Turning to GGGGGCCACAGCAGAAGCGUUCACGUCACGGCCCGUGUCAGAUUCUGGUGAAUCUGCGAAUUCUGCUGU, the self-cleavage amounted to 0.188.
On to GGGGGCCACAGCAGAAGCGUUCACGUUGUGGCCCCUGUCAGAUUCUGGUGAAUCUGCGAAUUCUGCUGU, for which the self-cleavage came to 0.189.
For GGGGGCCACAGCAGAAGCGUUCACGUUGGGGCCCCUGUCAGAUUCUGGUGAAUCUGCGAAUUCUGCUGU, the self-cleavage was found to be 0.114.
For GGGGGCCACAGCAGAAGCGUUCACGUCACGGCCCCUGUCAGAUUUUGGUGAAUCUGCGAAUUCUGCUGU, the self-cleavage was 0.202.
